Assay results reported in publication PMC5410052.

Assays:
[1] = molecular target: human MMP-7 (matrilysin) (human) (UniProt P09237); assay: enzyme inhibition assay (quenched fluorescent peptide substrate); 60/60/250/500 nM MMP-1/-2/-7/-14cd incubated with 0.98-1000 nM (N-)TIMPs for 30 min at room temperature, then 1 uM M-2350 substrate; KI from the equation for slow tight-binding inhibitors
[2] = molecular target: human MMP-1 (collagenase 1) (human) (UniProt P03956); assay: as above
[3] = molecular target: human MMP-2 (gelatinase A) (human) (UniProt P08253); assay: as above
[4] = molecular target: catalytic domain of human MMP-14 (cdMMP-14) (human) (UniProt P50281)
[5] = molecular target: human MMP-7 (matrilysin) (human) (UniProt P09237)
[6] = molecular target: human MMP-1 (collagenase 1) (human) (UniProt P03956)
[7] = molecular target: human MMP-2 (gelatinase A) (human) (UniProt P08253)
[8] = molecular target: catalytic domain of human MMP-14 (cdMMP-14) (human) (UniProt P50281); assay: enzyme inhibition assay (quenched fluorescent peptide substrate); 60/60/250/500 nM MMP-1/-2/-7/-14cd incubated with 0.98-1000 nM (N-)TIMPs for 30 min at room temperature, then 1 uM M-2350 substrate; KI from the equation for slow tight-binding inhibitors

Sequence of UniProt P09237 (P09237 95-267): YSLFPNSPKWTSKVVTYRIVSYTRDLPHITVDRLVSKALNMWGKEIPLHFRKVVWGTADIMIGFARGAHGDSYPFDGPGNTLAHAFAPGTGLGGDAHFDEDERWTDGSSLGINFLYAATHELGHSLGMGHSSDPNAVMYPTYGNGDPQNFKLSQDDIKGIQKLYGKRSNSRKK
Sequence of UniProt P08253 (P08253 110-660): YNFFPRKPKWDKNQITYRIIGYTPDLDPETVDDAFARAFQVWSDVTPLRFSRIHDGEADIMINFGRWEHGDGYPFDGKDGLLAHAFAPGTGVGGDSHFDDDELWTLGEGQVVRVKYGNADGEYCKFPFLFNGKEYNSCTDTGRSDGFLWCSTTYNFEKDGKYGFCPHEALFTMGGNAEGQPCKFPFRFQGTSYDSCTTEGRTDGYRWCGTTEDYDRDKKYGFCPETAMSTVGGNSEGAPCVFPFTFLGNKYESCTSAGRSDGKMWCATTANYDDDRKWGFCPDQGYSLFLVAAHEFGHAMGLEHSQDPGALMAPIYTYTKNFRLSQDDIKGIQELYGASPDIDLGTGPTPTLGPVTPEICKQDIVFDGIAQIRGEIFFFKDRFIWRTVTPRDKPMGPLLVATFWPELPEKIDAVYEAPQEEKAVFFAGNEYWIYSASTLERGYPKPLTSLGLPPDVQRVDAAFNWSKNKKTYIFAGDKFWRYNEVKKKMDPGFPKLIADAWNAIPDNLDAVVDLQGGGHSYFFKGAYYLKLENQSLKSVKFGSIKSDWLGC
Sequence of UniProt P03956 (P03956 100-469): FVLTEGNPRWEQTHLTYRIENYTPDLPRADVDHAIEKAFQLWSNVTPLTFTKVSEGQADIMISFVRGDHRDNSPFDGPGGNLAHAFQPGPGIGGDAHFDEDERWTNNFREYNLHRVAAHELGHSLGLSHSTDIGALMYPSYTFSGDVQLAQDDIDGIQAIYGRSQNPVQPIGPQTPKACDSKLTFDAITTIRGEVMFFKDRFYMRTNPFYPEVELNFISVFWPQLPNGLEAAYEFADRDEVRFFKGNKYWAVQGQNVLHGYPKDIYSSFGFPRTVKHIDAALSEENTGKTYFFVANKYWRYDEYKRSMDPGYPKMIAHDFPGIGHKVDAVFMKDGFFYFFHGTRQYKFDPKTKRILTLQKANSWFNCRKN

| Ki [1] [nM] | Ki [2] [nM] | Ki [3] [nM] | IC50 of inhibition of cdMMP-14 cleavage of a quenched fluorescent peptide substrate [4] [nM] | IC50 of inhibition of MMP-7 cleavage of a quenched fluorescent peptide substrate [5] [nM] | IC50 of inhibition of MMP-1 cleavage of a quenched fluorescent peptide substrate [6] [nM] | IC50 of inhibition of MMP-2 cleavage of a quenched fluorescent peptide substrate [7] [nM] | Ki [8] [nM] | Substance |
| --- | --- | --- | --- | --- | --- | --- | --- | --- |
| 4.62 | 7.21 | 11 |  |  |  |  |  | N-terminal domain of human TIMP-1 (N-TIMP-1) (domain or fragment) |
| 2.86 | 0.65 | 0.8 | 72 | 38 | 3 | 6 | 3.96 | N-terminal domain of human TIMP-2 (N-TIMP-2) (domain or fragment) |
